B1: E3 ubiquitin-protein ligase CIP8 (Arabidopsis thaliana (Mouse-ear cress)), Q9SPL2 (parent)
chain: MSDAPSSSPDATASHWCYHCNKRVVVETLDDFVVCCECNKGFVESIQPTPAAYSSPAPPQPLSPDLNVEDSSIGSHFLQMLRLLAHAPSQRSPPRHLDVLSYEDDFFRLELNSRNEIDDDEDEDEDDGDEEEEDEEENLTVNDEEDEEDDLRRRNRFPLTTTQSRTGRNRILDWAEILMGIEDNSIEFRMESDRYAGNPADYIDDAAGYEALLQNLAEGDGGGGGGRRGAPPAAKSAIEALETFEVSSSEGEMVMVCAVCKDGMVMGETGKKLPCGHCYHGDCIVPWLGTRNSCPVCRFQLETDDAEYEEERKKRTSTVSDSAAASSSSSTSRY
partner: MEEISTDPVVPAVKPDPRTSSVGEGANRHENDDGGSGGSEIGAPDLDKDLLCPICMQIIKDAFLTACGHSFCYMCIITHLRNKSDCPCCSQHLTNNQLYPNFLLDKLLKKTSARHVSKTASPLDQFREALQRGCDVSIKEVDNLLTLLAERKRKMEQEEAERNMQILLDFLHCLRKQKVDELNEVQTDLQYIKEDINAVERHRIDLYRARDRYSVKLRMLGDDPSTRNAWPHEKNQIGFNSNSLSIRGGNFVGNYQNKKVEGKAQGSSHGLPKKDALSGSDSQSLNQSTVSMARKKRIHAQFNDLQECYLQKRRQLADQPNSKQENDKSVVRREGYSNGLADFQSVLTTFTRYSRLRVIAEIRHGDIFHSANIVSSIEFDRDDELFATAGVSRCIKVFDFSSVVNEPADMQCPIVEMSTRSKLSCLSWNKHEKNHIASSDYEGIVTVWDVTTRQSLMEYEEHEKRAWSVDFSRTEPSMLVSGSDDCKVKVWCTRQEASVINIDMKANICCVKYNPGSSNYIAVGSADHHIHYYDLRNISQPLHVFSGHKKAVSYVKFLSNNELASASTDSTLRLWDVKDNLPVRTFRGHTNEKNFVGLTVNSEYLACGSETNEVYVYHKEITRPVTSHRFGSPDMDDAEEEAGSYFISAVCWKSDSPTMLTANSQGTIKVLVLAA
B2: E3 ubiquitin-protein ligase COP1 (Arabidopsis thaliana (Mouse-ear cress)), P43254 (parent)
chain: B1 partner
partner: B1 chain

The text below walks through data of IntAct's records for PubMed 10488108.

In the first assay the parent is B1. Particulars: with cop1_arath COP1, P43254.
MSDAPSSSPDATASHWCYHCNKRVVVETLDDFVVCCECNKGFVESIQPTPAAYSSPAPPQPLSPDLNVEDSSIGSHFLQMLRLLAHAPSQRSPPRHLDVLSYEDDFFRLELNSRNEIDDDEDEDEDDGDEEEEDEEENLTVNDEEDEEDDLRRRNRFPLTTTQSRTGRNRILDWAEILMGIEDNSIEFRMESDRYAGNPADYIDDAAGYEALLQNLAEGDGGGGGGRRGAPPAAKSAIEALETFEVSSSEGEMVMVCAVCKDGMVMGETGKKLPAGACYAGDAIVPWLGTRNSCPVCRFQLETDDAEYEEERKKRTSTVSDSAAASSSSSTSRY [C275A;H277A;H280A;C283A]: the “effect of a mutation on the interaction” value is “disrupting interaction”.

In the next assay the parent is B2. The note with it: with cip8_arath CIP8, Q9SPL2.
On to C67A;H69A;C72A;C75A, for which the “effect of a mutation on the interaction” value is given as “disrupting interaction”.
